What is called Tm is the temperature at which the thermal transition is half complete.

The values that follow come from FireProtDB (doi:10.1074/jbc.m110728200).

B1: Lysozyme C, P61626 (parent)
chain: MKALIVLGLVLLSVTVQGKVFERCELARTLKRLGMDGYRGISLANWMCLAKWESGYNTRATNYNAGDRSTDYGIFQINSRYWCNDGKTPGAVNACHLSCSALLQDNIADAVACAKRVVRDPQGIRAWVAWRNRCQNRDVRQYVQGCGV

The variants in the first series derive from B1. As to conditions: Homo sapiens; pH 2.66; Thermal; DSC; Gly-HCl 0.05 M; structure 1LZ1; whole UniProt chain shown.
With MKALIVLGLVLLSVTVQGKDFERCELARTLKRLGMDGYRGISLANWMCLAKWESGYNTRATNYNAGDRSTDYGIFQINSRYWCNDGKTPGAVNACHLSCSALLQDNIADAVACAKRVVRDPQGIRAWVAWRNRCQNRDVRQYVQGCGV [V20D], the melting temperature (Tm) worked out at 59.6 °C, the “unfolding enthalpy (calorimetric)” value turned out to be 103 kcal/mol and the “unfolding enthalpy (van 't Hoff)” value was found to be 99.9 kcal/mol.
Taken in the same sequence, the figures for MKALIVLGLVLLSVTVQGKVFERCELARTLKRLGMDGYRGISLANWMCLAKWESGYNTRATNYNAGDRSTDYGIFQINSRYWCNDGKTPGARNACHLSCSALLQDNIADAVACAKRVVRDPQGIRAWVAWRNRCQNRDVRQYVQGCGV [V92R] were 63.8 °C, 102 kcal/mol and 100 kcal/mol.

The same series, now with this note: Homo sapiens; pH 2.7; 64.9 °C; Thermal; DSC; Gly-HCl 0.05 M; structure 1LZ1; whole UniProt chain shown.
Consider MKALIVLGLVLLSVTVQGKDFERCELARTLKRLGMDGYRGISLANWMCLAKWESGYNTRATNYNAGDRSTDYGIFQINSRYWCNDGKTPGAVNACHLSCSALLQDNIADAVACAKRVVRDPQGIRAWVAWRNRCQNRDVRQYVQGCGV [V20D], for which the “ddG of mutation (higher = less stable)” value is 1.43 kcal/mol, the “heat capacity change of unfolding” value came to 1.58 kcal/mol/K and the “unfolding enthalpy (calorimetric)” value stood at 111 kcal/mol.
Consider MKALIVLGLVLLSVTVQGKVFERCELARTLKRLGMDGYRGISLANWMCLAKWESGYNTRATNYNAGDRSTDYGIFQINSRYWCNDGKTPGARNACHLSCSALLQDNIADAVACAKRVVRDPQGIRAWVAWRNRCQNRDVRQYVQGCGV [V92R], for which the “ddG of mutation (higher = less stable)” value came out at 0.07 kcal/mol, the “heat capacity change of unfolding” value amounted to 1.67 kcal/mol/K and the “unfolding enthalpy (calorimetric)” value is 104 kcal/mol.
In the same order, the values of MKALIVLGLVLLSVTVQGKVFERCELARTLKRLGMDGYRGISLANWMCLAKWESGYNTRATNYNAGDRSTDYGIFQINSRYWCNDGKTPGANNACHLSCSALLQDNIADAVACAKRVVRDPQGIRAWVAWRNRCQNRDVRQYVQGCGV [V92N] are 0.33 kcal/mol, 1.1 kcal/mol/K and 115 kcal/mol.

The series is the same for the next values; noted with them: Homo sapiens; pH 2.7; Thermal; DSC; Gly-HCl 0.05 M; structure 1LZ1; whole UniProt chain shown.
As for MKALIVLGLVLLSVTVQGKDFERCELARTLKRLGMDGYRGISLANWMCLAKWESGYNTRATNYNAGDRSTDYGIFQINSRYWCNDGKTPGAVNACHLSCSALLQDNIADAVACAKRVVRDPQGIRAWVAWRNRCQNRDVRQYVQGCGV [V20D], the melting temperature (Tm) was found to be 60.4 °C and the “change of melting temperature, mutant - wild type (higher = more stable)” value is -4.5 °C.
In the same order, the values of MKALIVLGLVLLSVTVQGKVFERCELARTLKRLGMDGYRGISLANWMCLAKWESGYNTRATNYNAGDRSTDYGIFQINSRYWCNDGKTPGARNACHLSCSALLQDNIADAVACAKRVVRDPQGIRAWVAWRNRCQNRDVRQYVQGCGV [V92R] are 64.6 °C and -0.3 °C.
For the variant MKALIVLGLVLLSVTVQGKVFERCELARTLKRLGMDGYRGISLANWMCLAKWESGYNTRATNYNAGDRSTDYGIFQINSRYWCNDGKTPGANNACHLSCSALLQDNIADAVACAKRVVRDPQGIRAWVAWRNRCQNRDVRQYVQGCGV [V92N], the Tm turned out to be 63.9 °C and the “change of melting temperature, mutant - wild type (higher = more stable)” value is -1 °C.

The series is the same for the next values; noted with them: Homo sapiens; pH 2.96; Thermal; DSC; Gly-HCl 0.05 M; structure 1LZ1; whole UniProt chain shown.
Turning to MKALIVLGLVLLSVTVQGKDFERCELARTLKRLGMDGYRGISLANWMCLAKWESGYNTRATNYNAGDRSTDYGIFQINSRYWCNDGKTPGAVNACHLSCSALLQDNIADAVACAKRVVRDPQGIRAWVAWRNRCQNRDVRQYVQGCGV [V20D], the Tm amounted to 64.9 °C, the “unfolding enthalpy (calorimetric)” value was 112 kcal/mol and the “unfolding enthalpy (van 't Hoff)” value is 108 kcal/mol.

The series is the same for the next values; noted with them: Homo sapiens; pH 3.01; Thermal; DSC; Gly-HCl 0.05 M; structure 1LZ1; whole UniProt chain shown.
As to MKALIVLGLVLLSVTVQGKDFERCELARTLKRLGMDGYRGISLANWMCLAKWESGYNTRATNYNAGDRSTDYGIFQINSRYWCNDGKTPGAVNACHLSCSALLQDNIADAVACAKRVVRDPQGIRAWVAWRNRCQNRDVRQYVQGCGV [V20D], the Tm amounted to 65.7 °C, the “unfolding enthalpy (calorimetric)” value was 113 kcal/mol and the “unfolding enthalpy (van 't Hoff)” value is 109 kcal/mol.

The series is the same for the next values; noted with them: Homo sapiens; pH 3.14; Thermal; DSC; Gly-HCl 0.05 M; structure 1LZ1; whole UniProt chain shown.
For MKALIVLGLVLLSVTVQGKDFERCELARTLKRLGMDGYRGISLANWMCLAKWESGYNTRATNYNAGDRSTDYGIFQINSRYWCNDGKTPGAVNACHLSCSALLQDNIADAVACAKRVVRDPQGIRAWVAWRNRCQNRDVRQYVQGCGV [V20D], the Tm worked out at 68 °C, the “unfolding enthalpy (calorimetric)” value came out at 116 kcal/mol and the “unfolding enthalpy (van 't Hoff)” value is 113 kcal/mol.

The series is the same for the next values; noted with them: Homo sapiens; pH 3.3; Thermal; DSC; Gly-HCl 0.05 M; structure 1LZ1; whole UniProt chain shown.
On to MKALIVLGLVLLSVTVQGKDFERCELARTLKRLGMDGYRGISLANWMCLAKWESGYNTRATNYNAGDRSTDYGIFQINSRYWCNDGKTPGAVNACHLSCSALLQDNIADAVACAKRVVRDPQGIRAWVAWRNRCQNRDVRQYVQGCGV [V20D], for which the Tm came out at 70.2 °C, the “unfolding enthalpy (calorimetric)” value turned out to be 120 kcal/mol and the “unfolding enthalpy (van 't Hoff)” value turned out to be 118 kcal/mol.

The same series, now with this note: Homo sapiens; pH 2.85; Thermal; DSC; Gly-HCl 0.05 M; structure 1LZ1; whole UniProt chain shown.
As to MKALIVLGLVLLSVTVQGKVFERCELARTLKRLGMDGYRGISLANWMCLAKWESGYNTRATNYNAGDRSTDYGIFQINSRYWCNDGKTPGARNACHLSCSALLQDNIADAVACAKRVVRDPQGIRAWVAWRNRCQNRDVRQYVQGCGV [V92R], the Tm was 67.3 °C, the “unfolding enthalpy (calorimetric)” value was found to be 108 kcal/mol and the “unfolding enthalpy (van 't Hoff)” value is 105 kcal/mol.

Still in this series, the particulars now being: Homo sapiens; pH 3; Thermal; DSC; Gly-HCl 0.05 M; structure 1LZ1; whole UniProt chain shown.
With MKALIVLGLVLLSVTVQGKVFERCELARTLKRLGMDGYRGISLANWMCLAKWESGYNTRATNYNAGDRSTDYGIFQINSRYWCNDGKTPGARNACHLSCSALLQDNIADAVACAKRVVRDPQGIRAWVAWRNRCQNRDVRQYVQGCGV [V92R], the Tm came out at 69.5 °C, the “unfolding enthalpy (calorimetric)” value stood at 112 kcal/mol and the “unfolding enthalpy (van 't Hoff)” value is 109 kcal/mol.

The series is the same for the next values; noted with them: Homo sapiens; pH 3.18; Thermal; DSC; Gly-HCl 0.05 M; structure 1LZ1; whole UniProt chain shown.
MKALIVLGLVLLSVTVQGKVFERCELARTLKRLGMDGYRGISLANWMCLAKWESGYNTRATNYNAGDRSTDYGIFQINSRYWCNDGKTPGARNACHLSCSALLQDNIADAVACAKRVVRDPQGIRAWVAWRNRCQNRDVRQYVQGCGV [V92R]: the Tm is 72.8 °C, the “unfolding enthalpy (calorimetric)” value stood at 117 kcal/mol and the “unfolding enthalpy (van 't Hoff)” value was found to be 114 kcal/mol.

The same series, now with this note: Homo sapiens; pH 3.22; Thermal; DSC; Gly-HCl 0.05 M; structure 1LZ1; whole UniProt chain shown.
As for MKALIVLGLVLLSVTVQGKVFERCELARTLKRLGMDGYRGISLANWMCLAKWESGYNTRATNYNAGDRSTDYGIFQINSRYWCNDGKTPGARNACHLSCSALLQDNIADAVACAKRVVRDPQGIRAWVAWRNRCQNRDVRQYVQGCGV [V92R], the Tm worked out at 73.2 °C, the “unfolding enthalpy (calorimetric)” value was 118 kcal/mol and the “unfolding enthalpy (van 't Hoff)” value turned out to be 116 kcal/mol.

Still in this series, the particulars now being: Homo sapiens; pH 2.65; Thermal; DSC; Gly-HCl 0.05 M; structure 1LZ1; whole UniProt chain shown.
With MKALIVLGLVLLSVTVQGKVFERCELARTLKRLGMDGYRGISLANWMCLAKWESGYNTRATNYNAGDRSTDYGIFQINSRYWCNDGKTPGANNACHLSCSALLQDNIADAVACAKRVVRDPQGIRAWVAWRNRCQNRDVRQYVQGCGV [V92N], the Tm turned out to be 63 °C, the “unfolding enthalpy (calorimetric)” value stood at 110 kcal/mol and the “unfolding enthalpy (van 't Hoff)” value amounted to 114 kcal/mol.

The same series, now with this note: Homo sapiens; pH 2.84; Thermal; DSC; Gly-HCl 0.05 M; structure 1LZ1; whole UniProt chain shown.
On to MKALIVLGLVLLSVTVQGKVFERCELARTLKRLGMDGYRGISLANWMCLAKWESGYNTRATNYNAGDRSTDYGIFQINSRYWCNDGKTPGANNACHLSCSALLQDNIADAVACAKRVVRDPQGIRAWVAWRNRCQNRDVRQYVQGCGV [V92N], for which the Tm amounted to 66.2 °C, the “unfolding enthalpy (calorimetric)” value came out at 114 kcal/mol and the “unfolding enthalpy (van 't Hoff)” value came to 116 kcal/mol.
